In US20190367606A1 (CENTRE FOR DRUG RESEARCH AND DEVELOPMENT, published 2019):

Experiments:
human podocalyxin [1] = target: T1, human podocalyxin (human, UniProt O00592 23-558); experiment: flow cytometry titration on 293-6E cells (endogenous podocalyxin), 24 hours at 4 C
T1 construct: also called hPodo; hPodocalyxin
T1 sequence: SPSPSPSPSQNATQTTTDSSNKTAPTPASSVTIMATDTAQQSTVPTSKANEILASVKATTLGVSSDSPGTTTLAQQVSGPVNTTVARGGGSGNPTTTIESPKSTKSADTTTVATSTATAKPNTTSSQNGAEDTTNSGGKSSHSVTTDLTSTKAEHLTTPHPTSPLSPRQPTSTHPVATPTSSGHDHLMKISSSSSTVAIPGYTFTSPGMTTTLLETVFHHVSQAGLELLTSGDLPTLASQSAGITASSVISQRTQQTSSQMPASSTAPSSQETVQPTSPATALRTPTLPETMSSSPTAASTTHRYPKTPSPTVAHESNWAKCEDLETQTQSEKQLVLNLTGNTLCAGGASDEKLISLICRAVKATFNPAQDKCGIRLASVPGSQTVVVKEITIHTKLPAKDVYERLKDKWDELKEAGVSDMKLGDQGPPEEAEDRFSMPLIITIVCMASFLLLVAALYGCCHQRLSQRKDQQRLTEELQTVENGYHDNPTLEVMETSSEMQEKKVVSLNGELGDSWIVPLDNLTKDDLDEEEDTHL
Experimental: (§1) The affinities of huPodo 83 1:1 and huPodo 83 2:1 antibodies were determined against endogenously expressed podocalyxin on 293 HEK cells. 293-6E cells were seeded in 96-well v bottom plates at 100,000 cells/well. The cells were pelleted at 400 g for 3 min and the supernatant was discarded. The cells were placed on ice and antibody 1:3 titrations were prepared using ice cold medium. The cells were resuspended in the prepared antibody titrations at 25 μl/well and incubated at 4° C. for either 24 or 48 hours. 200 μl 1% FBS/PGS (FACS buffer) was added to each well. The cells were pelleted at 400 g for 3 min and supernatant removed. The wash was repeated 2 more times. The cells were resuspended in goat anti-human IgGFc-A647 (2 μg/ml)+2.5 μg/ml 7AAD and incubated on ice for 30 min. The cells were washed as above and resuspended in 50 μl FACS buffer. The cells were analyzed by flow cytometry using the HTFC™ Screening System (IntelliCyt Corporation) (3 sec sip, 1.5 sec up) and the C6 cytometer (Becton Dickenson).

human podocalyxin [2] = target: T1, human podocalyxin; experiment: flow cytometry, supernatant Neat, hPodo/MDA-MB-231 transient transfectants
Experimental: (§2) The following antibodies were transiently transfected in 293HEK cells, transfected cells were incubated for 96 hours, antibody containing supernatant was then serially titrated in FACS sample buffer. The following supernatants were used as test samples:
(§3) MDA transient transfectants were established as essentially described above in Example 1. MDA transient transfectants and MDA-MB-231 cells were seeded in 96-well v bottom plates at 75,000 cells/well. Cells were pelleted by centrifugation at 400 g for 3 min. Supernatant was removed. The cell pellets were resuspended in 20 μl of the antibody or control supernatants. The plate was incubated on ice for 1 hour.
(§4) The cells were washed by adding 200 μl FACS buffer to dilute unbound antibody. The plate was centrifuged at 400 g for 3 min to pellet cells. The supernatant was removed and repeated. The cell pellets were resuspended in 25 μl of either goat anti-Hu IgG Fc-Alexa647, goat anti-Mouse IgG Fc-Alexa647, or goat anti-rabbit IgG0Fc-A647 (2 μg/ml) and 7A.A.D (2.5 μg/ml). The plates were incubated on ice for 0.5 hours. The wash procedure was again repeated 2×. The cell pellets were finally resuspended in 75 μl FACS buffer and read on the HTFC™ Screening System (IntelliCyt Corporation) (3 sec sip, 1.5 up time) and analyzed on the HyperView® software (IntelliCyt Corporation).

human podocalyxin [3] = target: T1, human podocalyxin; experiment: flow cytometry, supernatant 1:125, hPodo/MDA-MB-231 transient transfectants
Experimental: as §2, §3, §4

human podocalyxin [4] = target: T1, human podocalyxin; experiment: flow cytometry, supernatant Neat, MDA-MB-231 cells
Experimental: as §2, §3, §4

human podocalyxin [5] = target: T1, human podocalyxin; experiment: flow cytometry titration on 293-6E cells (endogenous podocalyxin), 48 hours at 4 C
Experimental: as §1

human podocalyxin [6] = target: T1, human podocalyxin; experiment: flow cytometry, supernatant 1:5, hPodo/MDA-MB-231 transient transfectants
Experimental: as §2, §3, §4

human podocalyxin [7] = target: T1, human podocalyxin; experiment: kinetic exclusion assay (KinExA 3200), A172 cells
human podocalyxin [8] = target: T1, human podocalyxin; experiment: flow cytometry, supernatant 2:15 (so in the source), MDA-MB-231 cells
Experimental: as §2, §3, §4

human podocalyxin [9] = target: T1, human podocalyxin; experiment: flow cytometry, supernatant 1:125, MDA-MB-231 cells
Experimental: as §2, §3, §4

human podocalyxin [10] = target: T1, human podocalyxin; experiment: flow cytometry, supernatant 1:5, MDA-MB-231 cells
Experimental: as §2, §3, §4

human podocalyxin [11] = target: T1, human podocalyxin; experiment: flow cytometry, supernatant 2:15 (so in the source), hPodo/MDA-MB-231 transient transfectants
Experimental: as §2, §3, §4

human podocalyxin [12] = target: T1, human podocalyxin; experiment: kinetic exclusion assay (KinExA 3200), MDA-MB-231 cells
Experimental: The concentration dependence of free anti-podocalyxin antibody as a function of MDA-MB231 cell number was determined using a KinExA 3200 instrument (Sapidyne Instruments). Briefly, MDA-MB-231 cells, which express endogenous podocalyxin, were titrated 1:2 from 10×10⁶ cells/mL down 12 steps, and incubated with a fixed concentration of anti-podocalyxin antibodies. MDA-MB231 cells and cell bound antibodies were then isolated by centrifugation. Supernatant containing free, unbound antibody was then transferred to a new tube. The supernatant containing free unbound antibody was passed over the column containing PMMA beads coated with a goat anti-IgG-Fc capture antibody. The amount of free antibody captured on the PMMA beads was then measured using a goat anti-IgG-Fc-A647. This process was repeated for every cell concentration. For each sample assayed a new column of PMMA beads with the goat anti-IgG-Fc capture antibody was packed. The concentration of free antibody over the entire 12 step dilution series was then used to determine the antibody Kd's using the standard Kd template in the KineExA Pro Software (Sapidyne Instruments).

B1: Rb/Hu Podo83 (Podo83 rabbit VH and VL, human IgG1 chimera) (antibody, V domains shown)
VH: QSLAESGGRLVTPGTPLTLTCTASGIDLSSYAMGWVRQAPGKGLEYIGFIYASGSIFYASWAKGRFTISKTSSTTVDLKMTSLTTEDTATYFCARAGYYFGGNYDLNLWGQGTLVTVSS
VL: DIVLTQTPASVEVAVGGTVTIKCQASQSISNYLAWYQRKPGQPPRLLIYRASTLASGVSSRFKGSGSGTQFTLTISGVECADAATYYCQQGYVSNNLDNIFGGGTEVVVK
notes: Rabbit variable domains cloned into human IgG1 and human Ig kappa constant region constructs (pTT5/IgG1, pTT5/Igk); also called anti-PODO; Ab-1
Human podocalyxin [1]
  IC50: 0.0295 µg/mL
Human podocalyxin [2]
  flow cytometry fluorescence (name not given): 79000
Human podocalyxin [3]
  flow cytometry fluorescence (name not given): 58500
Human podocalyxin [4]
  flow cytometry fluorescence (name not given): 143000
Human podocalyxin [5]
  IC50: 0.0305 µg/mL
Human podocalyxin [6]
  flow cytometry fluorescence (name not given): 99300
Human podocalyxin [7]
  Kd: 0.103 nM
Human podocalyxin [8]
  flow cytometry fluorescence (name not given): 102000
Human podocalyxin [9]
  flow cytometry fluorescence (name not given): 50600
Human podocalyxin [10]
  flow cytometry fluorescence (name not given): 121000
Human podocalyxin [11]
  flow cytometry fluorescence (name not given): 155000
Human podocalyxin [12]
  Kd: 0.0456 nM
